Article PMC4643982

Target: T1, EutR::MBP (Salmonella enterica serovar Typhimurium SL1344) (UniProt Q9ZFU7)
T1 sequence: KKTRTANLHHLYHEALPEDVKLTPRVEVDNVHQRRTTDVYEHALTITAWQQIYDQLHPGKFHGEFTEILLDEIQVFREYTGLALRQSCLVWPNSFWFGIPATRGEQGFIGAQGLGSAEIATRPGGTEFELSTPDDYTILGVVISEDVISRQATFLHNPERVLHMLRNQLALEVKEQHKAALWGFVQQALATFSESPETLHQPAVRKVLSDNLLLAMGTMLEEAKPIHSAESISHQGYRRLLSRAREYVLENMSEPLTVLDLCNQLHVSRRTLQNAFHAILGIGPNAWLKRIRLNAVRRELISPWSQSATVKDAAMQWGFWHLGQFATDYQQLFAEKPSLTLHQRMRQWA
Experiment: competition
Conditions: 60 mM HEPES pH 7.5, 300 mM KCl, 25 mM MgCl2, 5 mM EDTA, 3 mM DTT, 500 ug/ml BSA, 50 ng poly-dIdC, 1 mM ethanolamine, 150 nM vitamin B12; 25 min at 25 C; 6% …

## CCGGAATTGCCAGCTGGGGCGCCCTCTGGTAAGGTTGGGAAGCCCTGCAAAGTAAACTGGATGGCTTTCTTGCCGCCAAGGATCTGATGGCGCAGGGGATCAAGATCTGATCAAGAGACAGGATGAGGATCGTTTCGCATGATTGAACAAGA (double strand) [kan promoter probe]
  binding: no binding
